Results taken from paper PMC3043165 (2011).
Where no end group is shown, it is not given here.

T1: integrin αvβ3 (Homo sapiens, UniProt P06756)
T1 chain 1: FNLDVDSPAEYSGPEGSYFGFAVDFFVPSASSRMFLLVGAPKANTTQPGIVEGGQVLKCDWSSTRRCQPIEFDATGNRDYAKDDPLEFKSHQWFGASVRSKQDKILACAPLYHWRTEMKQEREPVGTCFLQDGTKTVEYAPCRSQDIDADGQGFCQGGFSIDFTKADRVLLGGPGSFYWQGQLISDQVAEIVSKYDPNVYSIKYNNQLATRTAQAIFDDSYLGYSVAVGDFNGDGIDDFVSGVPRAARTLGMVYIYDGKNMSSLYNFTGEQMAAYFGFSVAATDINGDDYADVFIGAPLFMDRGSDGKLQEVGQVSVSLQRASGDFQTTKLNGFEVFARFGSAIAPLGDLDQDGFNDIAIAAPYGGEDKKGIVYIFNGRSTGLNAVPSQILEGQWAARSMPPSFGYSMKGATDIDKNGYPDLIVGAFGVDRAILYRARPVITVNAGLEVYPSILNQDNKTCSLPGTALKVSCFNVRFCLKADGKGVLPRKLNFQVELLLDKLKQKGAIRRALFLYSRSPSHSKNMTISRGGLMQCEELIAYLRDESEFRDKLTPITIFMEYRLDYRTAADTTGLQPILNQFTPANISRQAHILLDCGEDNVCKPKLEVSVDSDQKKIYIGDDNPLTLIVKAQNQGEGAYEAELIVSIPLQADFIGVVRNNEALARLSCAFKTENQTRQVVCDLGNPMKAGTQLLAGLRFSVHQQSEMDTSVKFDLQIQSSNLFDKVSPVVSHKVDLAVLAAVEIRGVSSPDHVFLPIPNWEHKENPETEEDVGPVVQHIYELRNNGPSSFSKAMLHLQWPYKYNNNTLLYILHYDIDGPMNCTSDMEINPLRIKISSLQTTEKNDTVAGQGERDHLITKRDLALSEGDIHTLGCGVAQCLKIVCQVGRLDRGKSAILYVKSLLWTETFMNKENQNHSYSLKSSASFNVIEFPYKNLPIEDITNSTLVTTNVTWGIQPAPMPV
T1 chain 2: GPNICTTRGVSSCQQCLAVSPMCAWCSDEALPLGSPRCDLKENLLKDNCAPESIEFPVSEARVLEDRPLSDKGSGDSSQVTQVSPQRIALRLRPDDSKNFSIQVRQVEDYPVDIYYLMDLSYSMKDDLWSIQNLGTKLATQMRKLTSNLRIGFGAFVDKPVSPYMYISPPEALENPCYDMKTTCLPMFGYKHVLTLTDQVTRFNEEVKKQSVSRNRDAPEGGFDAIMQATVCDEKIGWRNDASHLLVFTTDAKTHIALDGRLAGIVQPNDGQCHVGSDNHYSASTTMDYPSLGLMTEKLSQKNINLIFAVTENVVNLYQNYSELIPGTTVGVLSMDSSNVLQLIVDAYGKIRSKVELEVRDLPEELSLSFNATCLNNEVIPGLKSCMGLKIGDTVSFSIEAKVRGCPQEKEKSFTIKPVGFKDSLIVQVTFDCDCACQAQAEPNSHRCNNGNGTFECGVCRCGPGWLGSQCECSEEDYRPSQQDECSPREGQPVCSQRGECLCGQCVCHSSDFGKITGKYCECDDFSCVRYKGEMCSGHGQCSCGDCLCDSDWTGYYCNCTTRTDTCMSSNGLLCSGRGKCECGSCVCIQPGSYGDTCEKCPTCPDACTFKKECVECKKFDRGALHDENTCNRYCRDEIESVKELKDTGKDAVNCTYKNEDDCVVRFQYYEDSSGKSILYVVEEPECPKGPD

T2: integrin αvβ5 (Homo sapiens, UniProt P06756)
T2 chain 1: T1 chain 1
T2 chain 2: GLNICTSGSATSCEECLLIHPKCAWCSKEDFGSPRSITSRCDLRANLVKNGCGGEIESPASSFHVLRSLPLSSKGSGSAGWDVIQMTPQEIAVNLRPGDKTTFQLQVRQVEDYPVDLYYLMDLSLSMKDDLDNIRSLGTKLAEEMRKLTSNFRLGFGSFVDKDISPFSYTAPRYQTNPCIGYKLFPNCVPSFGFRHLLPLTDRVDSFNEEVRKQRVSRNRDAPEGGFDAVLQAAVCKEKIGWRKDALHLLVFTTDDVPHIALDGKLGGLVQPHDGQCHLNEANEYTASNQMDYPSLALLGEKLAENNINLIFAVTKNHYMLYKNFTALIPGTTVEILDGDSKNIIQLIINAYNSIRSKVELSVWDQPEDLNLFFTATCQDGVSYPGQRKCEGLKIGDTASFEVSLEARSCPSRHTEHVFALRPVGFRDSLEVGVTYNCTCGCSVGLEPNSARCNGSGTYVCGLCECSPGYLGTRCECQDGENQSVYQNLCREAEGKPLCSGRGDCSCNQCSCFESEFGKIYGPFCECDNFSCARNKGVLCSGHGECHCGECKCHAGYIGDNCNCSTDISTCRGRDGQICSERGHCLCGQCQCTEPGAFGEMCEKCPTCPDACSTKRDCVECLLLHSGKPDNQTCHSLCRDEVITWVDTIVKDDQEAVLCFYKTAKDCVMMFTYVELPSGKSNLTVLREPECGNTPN


Columns and labels:
integrin αvβ3 = molecular target: T1, integrin αvβ3; experiment: competitive solid-phase binding assay with biotinylated vitronectin
integrin αIIbβ3 = integrin αIIbβ3 (Homo sapiens, UniProt P08514); experiment: competitive solid-phase binding assay with biotinylated fibronectin
integrin αvβ5 = molecular target: T2, integrin αvβ5; experiment: competitive solid-phase binding assay with biotinylated vitronectin

| Binder | IC50 (integrin αvβ3) | IC50 (integrin αIIbβ3) | IC50 (integrin αvβ5) |
| --- | --- | --- | --- |
| GRGDS (not fully specified) [GRGDS-CNP 5% (7 peptides per CNP)] | 78.5 nM | > 1000 nM | > 1000 nM |
| GRGDS (not fully specified) [GRGDS-CNP 10% (14 peptides per CNP)] | 12.5 nM | – | – |

Stronger by IC50 (integrin αvβ3), values ahead:

| IC50 (integrin αvβ3) | IC50 (integrin αIIbβ3) | IC50 (integrin αvβ5) | Binder |
| --- | --- | --- | --- |
| 1.08 nM | – | – | GRGDS (not fully specified) [GRGDS-CNP 50% (70 peptides per CNP)] |
| 5.21 nM | – | – | GRGDS (not fully specified) [GRGDS-CNP 20% (28 peptides per CNP)] |
